The values that follow come from patent publication US20250250350.

The target of the data set is ALPG/P priming receptor of the AB-1013, AB-1014 and AB-1015 circuits.
Sequence of ALPG/P priming receptor of the AB-1013, AB-1014 and AB-1015 circuits (chain, as listed by the source): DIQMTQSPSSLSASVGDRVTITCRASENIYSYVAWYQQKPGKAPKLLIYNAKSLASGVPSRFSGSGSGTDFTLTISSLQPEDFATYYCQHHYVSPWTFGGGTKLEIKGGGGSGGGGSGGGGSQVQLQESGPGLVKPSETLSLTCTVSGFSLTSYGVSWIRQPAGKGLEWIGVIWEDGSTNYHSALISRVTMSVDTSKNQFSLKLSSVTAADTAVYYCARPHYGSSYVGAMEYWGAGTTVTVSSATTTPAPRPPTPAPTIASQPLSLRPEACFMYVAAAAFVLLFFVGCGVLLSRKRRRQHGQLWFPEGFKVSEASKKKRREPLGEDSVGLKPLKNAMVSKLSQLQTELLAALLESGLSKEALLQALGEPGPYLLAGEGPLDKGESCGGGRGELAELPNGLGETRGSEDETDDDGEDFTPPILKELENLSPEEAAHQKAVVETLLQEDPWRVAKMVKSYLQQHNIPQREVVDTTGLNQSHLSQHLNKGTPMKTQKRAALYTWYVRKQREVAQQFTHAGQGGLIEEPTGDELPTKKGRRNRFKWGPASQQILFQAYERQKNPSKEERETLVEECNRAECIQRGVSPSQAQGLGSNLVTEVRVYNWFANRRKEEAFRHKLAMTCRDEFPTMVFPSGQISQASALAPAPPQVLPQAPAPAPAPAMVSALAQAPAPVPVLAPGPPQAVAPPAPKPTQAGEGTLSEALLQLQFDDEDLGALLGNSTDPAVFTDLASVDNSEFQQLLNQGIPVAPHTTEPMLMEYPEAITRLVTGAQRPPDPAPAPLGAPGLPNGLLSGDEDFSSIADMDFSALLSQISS

B1: Alkaline Phosphatase, Germ Cell (ALPG) expressed on K562-ALPG and K562-ALPG/MSLN target cells (protein)
chain: IIPVEEENPDFWNRQAAEALGAAKKLQPAQTAAKNLIIFLGDGMGVSTVTAARILKGQKKDKLGPETFLAMDRFPYVALSKTYSVDKHVPDSGATATAYLCGVKGNFQTIGLSAAARFNQCNTTRGNEVISVMNRAKKAGKSVGVVTTTRVQHASPAGAYAHTVNRNWYSDADVPASARQEGCQDIATQLISNMDIDVILGGGRKYMFPMGTPDPEYPDDYSQGGTRLDGKNLVQEWLAKHQGARYVWNRTELLQASLDPSVTHLMGLFEPGDMKYEIHRDSTLDPSLMEMTEAALLLLSRNPRGFFLFVEGGRIDHGHHESRAYRALTETIMFDDAIERAGQLTSEEDTLSLVTADHSHVFSFGGYPLRGSSIFGLAPGKARDRKAYTVLLYGNGPGYVLKDGARPDVTESESGSPEYRQQSAVPLDGETHAGEDVAVFARGPQAHLVHGVQEQTFIAHVMAFAACLEPYTACDLAPRAGTTD
Take B1: the “time to peak of ALPG-dependent CAR conversion” value is listed as “reached a peak after around 100 hours of stimulation with the PrimeR antigen”.
